The values below are quoted from earlier work in PMC5615855.

The series has as its target N2B (HEB) N2B (Homo sapiens) (UniProt Q99081).

With “NHR2 (AML1-ETO) NHR2 (from UniProt Q06455)”, the Kd was 356 µM.
